In PMC3314614, “The Tandem CARDs of NOD2: Intramolecular Interactions and Recognition of RIP2” (PLoS ONE, 2012) one finds Kd, dH and stoichiometry N data, which are given here for eight molecules.

The target of one test is Pop1 PYD (Homo sapiens) (UniProt Q8WXC3). The settings on record: cited from earlier work.
Test [1] deals with NOD2-CARDb (isolated) (human) (UniProt Q9HC29). Description: ITC; CARDa in the syringe, CARDb in the cell; 30°C; 50 mM Tris-HCl, 100 mM NaCl, 2 mM DTT, pH 7.5; one-site model. Background: ITC needs no label: the signal is the heat of the interaction.
Test [2] shares this target. Description: ITC; CARDa in the syringe, CARDb in the cell; 25°C; 50 mM Tris-HCl, 100 mM NaCl, 2 mM DTT, pH 7.5; one-site model.
For test [3] the target is unchanged. Briefly: ITC; CARDa in the syringe, CARDb in the cell; 30°C; 50 mM Tris-HCl, 250 mM NaCl, 2 mM DTT, pH 7.5.
For test [4] the target is unchanged. Briefly: ITC; CARDa in the syringe, CARDb in the cell; 18°C; 50 mM Tris-HCl, 100 mM NaCl, 2 mM DTT, pH 7.5; one-site model.
Test [5] has the same target. Briefly: AUC; sedimentation velocity; individual samples and a 1:1 mixture of CARDa and CARDb; optical density 0.5 at 280 nm; SedFit.
Test [6] shares this target. Description: ITC; CARDa in the syringe, CARDb in the cell; 30°C; 50 mM Tris-HCl, 1000 mM NaCl, 2 mM DTT, pH 7.5.
Test [7] shares this target. Briefly: ITC; CARDa in the syringe, CARDb in the cell; 30°C; 50 mM Tris-HCl, 500 mM NaCl, 2 mM DTT, pH 7.5.
Test [8] shares this target. Description: ITC; CARDa in the syringe, CARDb in the cell; 25°C; 50 mM Tris-HCl, 100 mM NaCl, 2 mM DTT, pH 7.5; one-site model. This is another data set of the same source.
The target is the same in test [9]. Description: ITC; CARDa in the syringe, CARDb in the cell; 30°C; 50 mM Tris-HCl, 50 mM NaCl, 2 mM DTT, pH 7.5.
Test [10] has as its target Tube DD (Drosophila melanogaster) (UniProt P22812). The note with it: cited from earlier work.
The target in test [11] is caspase-1 CARD (Homo sapiens) (UniProt P29466). The note with it: cited from earlier work.
Chain of caspase-1 CARD (Homo sapiens) (P29466 1-94): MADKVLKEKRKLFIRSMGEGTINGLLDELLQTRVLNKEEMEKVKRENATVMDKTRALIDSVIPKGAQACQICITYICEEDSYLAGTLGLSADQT
Another test deals with T1, procaspase-9 CARD (UniProt P55211 1-92).
T1 construct: procaspase-9, CARD
T1 sequence (looked up): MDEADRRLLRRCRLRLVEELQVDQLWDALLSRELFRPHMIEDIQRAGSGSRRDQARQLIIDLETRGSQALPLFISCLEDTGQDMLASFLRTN
Briefly: ITC; data not shown; at different temperatures. The settings on record: both partners purified.

Chain of Pop1 PYD (Homo sapiens) (Q8WXC3 whole entry): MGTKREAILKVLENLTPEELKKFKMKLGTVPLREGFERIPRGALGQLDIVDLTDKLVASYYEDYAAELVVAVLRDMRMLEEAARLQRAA
Chain of Tube DD (Drosophila melanogaster) (P22812 27-152): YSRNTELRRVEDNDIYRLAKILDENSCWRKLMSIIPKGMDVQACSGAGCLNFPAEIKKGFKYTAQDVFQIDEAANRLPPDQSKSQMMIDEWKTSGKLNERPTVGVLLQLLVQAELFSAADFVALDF

For the molecule ASC PYD (from UniProt Q9ULZ3), the Kd (as a rule, a measure of binding affinity in units of concentration) with Pop1 PYD (Homo sapiens) is 4000 nM.

For “NOD2-CARDa (isolated, wild type) (from UniProt Q9HC29 28-119) (domain or fragment)”, the Kd in test [1] came out at 1410 nM; in [2] it was 1100 nM; in test [3], 2990 nM; in test [4], 1080 nM; in test [6] it was 7140 nM; in test [7], 6250 nM. The Kd in test [8] was 880 nM; in test [9], 1090 nM. Also, the dH was -7.4 kcal/mol in [1]; -5.5 kcal/mol in [3]; -2 kcal/mol in test [4]; -2.6 kcal/mol in test [6]; -4.8 kcal/mol in test [7]; -4.7 kcal/mol in test [8]. In addition, in test [9], the dH is -9 kcal/mol. For the same molecule, the stoichiometry N (usually the number of molecules, sites or subunits per partner or assembly) in test [1] was determined as 0.91; in [3], 0.99; in test [4] it was 0.84; in test [5] it was 1; in test [6], 0.78; in test [7], 0.85. Further, the stoichiometry N in test [8] came out at 1.03; in test [9], 0.61.

On to “NOD2-CARDa E69K (isolated) (from UniProt Q9HC29 28-119) (domain or fragment)”, for which, in [8], the Kd came to 720 nM, the dH was -3.8 kcal/mol and the stoichiometry N worked out at 0.94.

For the molecule “NOD2-CARDa E72K (isolated) (from UniProt Q9HC29 28-119) (domain or fragment)”, in test [8], the Kd came to 330 nM, the dH was -5.2 kcal/mol and the stoichiometry N amounted to 0.81.

Regarding “NOD2-CARDa R86A (isolated) (from UniProt Q9HC29 28-119) (domain or fragment)”, in [8], the Kd stood at 810 nM, the dH was -4.8 kcal/mol and the stoichiometry N came to 0.91.

Take Pelle DD (from UniProt Q05652): the Kd in [10] is 500 nM.

Regarding RIP2 CARD (from UniProt O43353), the equilibrium dissociation constant (Kd) in [11] was 1400 nM.

B1: Apaf-1 CARD (domain or fragment, UniProt O14727 1-90, looked up)
chain: MDAKARNCLLQHREALEKDIKTSYIMDHMISDGFLTISEEEKVRNEPTQQQRAAMLIKMILKKDNDSYVSFYNALLHEGYKDLAALLHDG
notes: Apaf-1, CARD
Turning to B1, the Kd with procaspase-9 CARD was 1000 to 4000 nM.
